From patent publication US20250339531A1, “DUX4 POLYPEPTIDES AND NUCLEIC ACIDS FOR TREATING INFLAMMATORY AND AUTOIMMUNE CONDITIONS” (Fred Hutchinson Cancer Center, priority 2021, published 2025)
Entries after “also recorded” stand apart in the source; their conditions may differ.

B1: longCTDmL1dL2: longCTD with first (L)LxxL(L) motif disrupted and second deleted, SEQ ID NOS: 10 and 11 (protein)
chain: MDYKDHDGDYKDHDIDYKDDDDKPPKRMRREPKKKRKVGRAPAQAGGLCSAAPGGGHPAPSWVAFAHTGAWGTGLPAPHVPCAPGALPQGAFVSQAARAAPALQPSQAAPAEGISQPAPARGDFAYAAPAPPDGALSHPQAPRWPPHPGKSREDRDPQRDGLPGPCAVAQPGPAQAGPQGQGVLAPPTSQGSPWWGWGRGPQVAGAAWEPQAGAAPPPQPAPPDASASARQGQMQGIPAPSQALQEPAPWSALPCGLLAAEAAASPEFLQQAQPLLETEAPGELEASEEAASLEAPLSEEEYRA
B2: CIC-DUX4 fusion: Kitra-SRS CIC-DUX4 fusion protein containing the terminal 98 amino acids of DUX4, doxycycline inducible (protein)
chain: MDYKDHDGDYKDHDIDYKDDDDKPPKRMRREPKKKRKVNLEGTSGGILQKEFWRNRIQYNQSQKDILQSWFQHDPFPDKAAREQLAKEIGVPESNIQVWFKNYRVKQRKLDYKCFSEKDQTQGHDQSQHLTQEYLPKEARQKQTFITWTQKNRLVQAFERNPFPDIATRKKLAEQTGLQESRIQMWFQKQRSLYLKKSRMEPMNLLVDDPNERPDATVGWHPINLFLPTDSSHYFSCSHSSSGHETLPPVLPSTQAPWDPFRFHVSQGPNVMIMQPTQAVQEGEKSDQPLIIPNHLLTLPILTKDLDTPTPFWLQYQEEHQNHKEHSGSGVPQVKSHSQPEPEHREQQPLNLGQFDISNILQRWDEICQALLAEWEPLKGTH
B3: mouse Dux: mouse ortholog of human DUX4, SEQ ID NO:15, doxycycline inducible codon altered SEQ ID NO:16 (protein, listed as Mus musculus)
chain: MAEAGSPVGGSGVARESRRRRKTVWQAWQEQALLSTFKKKRYLSFKERKELAKRMGVSDCRIRVWFQNRRNRSGEEGHASKRSIRGSRRLASPQLQEELGSRPQGRGMRSSGRRPRTRLTSLQLRILGQAFERNPRPGFATREELARDTGLPEDTIHIWFQNRRARRRHRRGRPTAQDQDLLASQGSDGAPAGPEGREREGAQENLLPQEEAGSTGMDTSSPSDLPSFCGESQPFQVAQPRGAGQQEAPTRAGNAGSLEPLLDQLLDEVQVEEPAPAPLNLDGDPGGRVHEGSQESFWPQEEAGSTGMDTSSPSDSNSFCRESQPSQVAQPCGAGQEDARTQADSTGPLELLLLDQLLDEVQKEEHVPVPLDWGRNPGSREHEGSQDSLLPLEEAVNSGMDTSIPSIWPTFCRESQPPQVAQPSGPGQAQAPTQGGNTDPLELFLYQLLDEVQVEEHAPAPLNWDVDPGGRVHEGSWESFWPQEEAGSTGLDTSSPSDSNSFFRESKPSQVAQRRGAGQEDARTQADSTGPLELLLFDQLLDEVQKEEHVPAPLDWGRNPGSMEHEGSQDSLLPLEEAANSGRDTSIPSIWPAFCRKSQPPQVAQPSGPGQAQAPIQGGNTDPLELFLDQLLTEVQLEEQGPAPVNVEETWEQMDTTPDLPLTSEEYQTLLDML
B4: iNLS-CTD: 3×FLAG tag nls construct encoding terminal 86 amino acids of DUX4 (aa 339-424), SEQ ID NOS: 12 and 13 (protein)
chain: MDYKDHDGDYKDHDIDYKDDDDKPKKKRKVNASASARQGQMQGIPAPSQALQEPAPWSALPCGLLLDELLASPEFLQQAQPLLETEAPGELEASEEAASLEAPLSEEEYRALLEEL
modifications: 3xFLAG tag and NLS

Legend:
[1] = tested on: interferon-stimulated genes IFIH1, ISG20, CXCL9, and CD74; test: IFNG induction of interferon-stimulated genes, RT-qPCR in MB135 cells with doxycycline-inducible transgenes; format: cell-based, human; conditions: MB135 cells, doxycycline-induced transgene, continuous protocol, IFNG 16 h
Protocol: All myoblast experiments were conducted in immortalized MB135 or MB200 myoblast cell lines (isolated from a control or FSHD2 subject, respectively cultured in Ham's F-10 Nutrient Mix (Gibco) supplemented with 15% fetal bovine serum (Hyclone), 100 U/100 μg/ml penicillin/streptomycin (Gibco), 1 μM dexamethasone (Sigma), and 10 ng/ml recombinant human basic fibroblast growth factor (PeproTech). To differentiate the myoblasts to myotubes, media was changed to DMEM supplemented with 10 μg/ml insulin (Sigma) and 10 μg/ml transferrin (Sigma). Cell lines containing doxycycline-inducible transgenes were additionally cultured with 2 μg/mL puromycin (Sigma). Transgenes were induced with 1 μg/mL of doxycycline (Sigma) for 4 hours prior to other treatments for a total of 20 hrs. The Kitra-SRS cells (RRID:CVCL_YI69) were provided by Dr. H. Otani and Osaka University (Nakai et al., 2019) and were cultured in DMEM supplemented with 10% fetal bovine serum (Hyclone) and 100 U/100 μg/ml penicillin/streptomycin (Gibco). Biological replicates consisted of independent but parallel experiments, such as simultaneously stimulating three cell culture plates with IFNγ. Technical replicates consisted of repeat measurements of the same biological sample, such as loading the same biological sample in triplicate for analysis by RT-qPCR.
Myoblasts were transfected with either (final concentrations) 10 μM 2′,3′-cGAMP (Sigma Aldrich), 2 μg/mL poly(I:C) (Invitrogen), or 1 μg/mL 3′ppp-dsRNA RIG-I ligand (Dan Stetson Lab, UW) using Lipofectamine 2000 according to manufacturer's protocol, or were stimulated with 1000U IFNβ (PeproTech) or 200 ng/ml IFNγ (R+D Systems) by addition directly to cell culture medium. After 16 hours of immune stimulation, RNA was collected from cells using the NucleoSpin RNA Kit (Macherey-Nagel) according to manufacturer's instructions. RNA samples were quantified by nanodrop and 1 μg of RNA per sample was treated with DNase I Amplification Grade (Thermo Fisher), and then synthesized into cDNA using the Superscript IV First-Strand Synthesis System, including oligo dT primers (Invitrogen). qPCR was run in 384-well plates on an Applied Biosystems QuantStudio 6 Flex Real-Time PCR System (ABI) and analyzed in Microsoft Excel.

[2] = tested on: STAT1; test: Anti-FLAG co-immunoprecipitation and western blot for STAT1; format: binding, human; conditions: anti-FLAG IP from MB135 cells ± IFNG
Protocol: Centrifugation at 2500 rcf at 4° C. for 5 min pelleted the nuclei, supernatant was discarded, and nuclei resuspended in 1 mL IP buffer pH 7.4 (25 mM Tris-HCl pH 7.5, 175 mM NaCl, 1 mM EDTA, 0.2% NP-40, 5% glycerol) and incubated for 1 hour at 4° C. with rotation then spun at 21000 rcf for 10 minutes at 4° C. to pellet insoluble debris. Protein concentration was determined using the Pierce BCA Protein Assay Kit (ThermoFisher, 23225). An equivalent amount of protein per sample was pre-cleared with Dynabeads Protein G (Invitrogen) bound to mouse IgG (Abcam #131368) for 1 hour at 4° C. with rotation. FLAG-tagged constructs were then immunoprecipitated with Dynabeads Protein G beads coupled to mouse anti-FLAG M2 mAb (Sigma F3165) for 3 hours at 4° C. with rotation. Beads were washed 3× with 1 mL IP buffer and eluted by adding 2× NuPage LDS Sample Buffer (Thermo Fisher, diluted from 4× with PBS) to the beads and heating for 10 minutes at 70° C.
Antibodies against STAT1 [EPR4407] (ab109320), pSTAT1 Y701 [M135] (ab29045), pSTAT1 S727 [EPR3146] (ab109461), YBX1 [EP2708Y] (ab76149), PABPC1 (ab21060), hnRNPM [EPR13509 (B)] (ab177957), PRKDC [Y393] (ab32566), and HSP90AB1 [EPR16621] (ab203085) were purchased from Abcam. Antibodies against FLAG tag [M2] (F1804) and [M2] (F3146) were purchased from Sigma Aldrich. Antibodies against DDX3X [D19B4] (8192S), hnRNPK [R332] (4675S), TRIM28 [C42G12] […]

Molecule	suppression of IFNG induction of ISGs (IFIH1, ISG20, CXCL9, CD74) [1]	suppression of IFNG induction of ISGs (IFIH1, ISG20, CXCL9, CD74) ([1]; listed as iDUX4-CTDmL1dL2)	co-immunoprecipitation with STAT1 / phosphorylated STAT1 [2]	suppression of IFNG induction of ISGs (IFIH1, ISG20, CXCL9, CD74) ([1]; listed as Dux)	suppression of IFNG induction of ISGs (IFIH1, ISG20, CXCL9, CD74) ([1]; listed as mouse DUX)	suppression of IFNG induction of ISGs (IFIH1, ISG20, CXCL9, CD74) ([1]; listed as iDUX4aa339-424)	suppression of IFNG induction of ISGs (IFIH1, ISG20, CXCL9, CD74) ([1]; listed as iNLS CTD)
B1	does not suppress any of the IFNG-induced ISG genes	did not block the panel of ISGs	both show binding to STAT1; also recorded: STAT1 is associated				
B2	suppressed IFNγ-induction of ISGs IFIH1, CXCL9, and CD74, although not ISG20						
B3	completely blocked the IFNG induction of these ISG genes		confirmed the co-immunoprecipitation of STAT1 and both phosphorylated pSTAT1-Y701 and pSTAT1-S727	repress the panel of ISGs even more robustly than the full-length or CTD portion of human DUX4	completely blocked		
B4	suppresses a portion of the IFNG-induced ISG genes, CXCL9 and CD74					maintained ISG suppression, though not as strongly on the IFIH1 and ISG20 genes	suppresses two of the four IFNG-induced
